Data from PMC7383231, “Pseudo-RNA-Binding Domains Mediate RNA Structure Specificity in Upstream of N-Ras”.

Columns and labels:
dUnr CSD456 = target: T1, dUnr CSD456 (Drosophila melanogaster, UniProt B7Z0E2 424-677); assay: EMSA; EMSA: 20 mM HEPES/NaOH pH 7.5, 50 mM NaCl, 10% glycerol, 2 mM DTT, 1 h at 4 C, ~25 nM RNA; NMR: 20 mM NaP pH 6.5, 50 mM NaCl, 1 mM DTT (10 mM for CSD12), 10% D2O, 298 K; details: protein: recombinant; tags: tag cleaved with TEV; label: 3' pCp-Cy5; stem loops
T1 sequence: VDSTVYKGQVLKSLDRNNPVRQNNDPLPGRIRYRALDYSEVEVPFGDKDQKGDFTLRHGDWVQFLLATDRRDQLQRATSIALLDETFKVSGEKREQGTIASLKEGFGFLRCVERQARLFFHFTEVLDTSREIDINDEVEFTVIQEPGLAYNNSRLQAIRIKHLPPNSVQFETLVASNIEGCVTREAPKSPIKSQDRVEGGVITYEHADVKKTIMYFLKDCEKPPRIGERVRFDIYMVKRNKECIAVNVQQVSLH

Unr full-length (dUnr) = target: T2, Unr full-length (dUnr) (Drosophila melanogaster, UniProt B7Z0E2 1-1039); assay: as above; details: protein: recombinant; tags: His6; label: 3' pCp-Cy5; stem loops
T2 sequence: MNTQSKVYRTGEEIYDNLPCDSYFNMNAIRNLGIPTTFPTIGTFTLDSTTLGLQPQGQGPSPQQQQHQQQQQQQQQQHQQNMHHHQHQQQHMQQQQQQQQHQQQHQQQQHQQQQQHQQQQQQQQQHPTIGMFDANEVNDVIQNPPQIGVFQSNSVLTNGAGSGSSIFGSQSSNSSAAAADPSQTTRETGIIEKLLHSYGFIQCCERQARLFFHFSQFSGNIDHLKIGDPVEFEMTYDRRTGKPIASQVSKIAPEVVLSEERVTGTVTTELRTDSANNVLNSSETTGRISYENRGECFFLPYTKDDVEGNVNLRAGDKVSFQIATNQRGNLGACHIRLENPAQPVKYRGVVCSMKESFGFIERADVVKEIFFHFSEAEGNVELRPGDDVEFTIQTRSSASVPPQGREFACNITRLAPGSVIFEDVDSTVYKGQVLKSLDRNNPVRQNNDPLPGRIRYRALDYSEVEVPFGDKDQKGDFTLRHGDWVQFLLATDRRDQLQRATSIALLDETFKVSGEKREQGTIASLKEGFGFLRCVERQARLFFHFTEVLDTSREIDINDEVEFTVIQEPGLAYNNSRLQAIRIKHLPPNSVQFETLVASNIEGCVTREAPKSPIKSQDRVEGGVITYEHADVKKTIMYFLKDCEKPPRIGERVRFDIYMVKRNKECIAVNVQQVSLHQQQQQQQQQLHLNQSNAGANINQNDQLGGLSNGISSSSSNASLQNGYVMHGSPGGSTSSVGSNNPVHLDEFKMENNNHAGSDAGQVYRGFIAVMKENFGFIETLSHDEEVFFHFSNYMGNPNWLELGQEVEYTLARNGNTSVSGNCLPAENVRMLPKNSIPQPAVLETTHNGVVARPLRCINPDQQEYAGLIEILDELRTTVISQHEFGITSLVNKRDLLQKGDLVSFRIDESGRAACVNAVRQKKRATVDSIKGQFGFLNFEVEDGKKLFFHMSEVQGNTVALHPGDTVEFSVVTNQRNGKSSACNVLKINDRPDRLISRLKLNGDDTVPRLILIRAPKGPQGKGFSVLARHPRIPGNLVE

dUnr CSD123 = target: T3, dUnr CSD123 (Drosophila melanogaster, UniProt B7Z0E2 186-414); assay: as above; details: protein: recombinant; tags: tag cleaved with TEV; label: 3' pCp-Cy5; stem loops
T3 sequence: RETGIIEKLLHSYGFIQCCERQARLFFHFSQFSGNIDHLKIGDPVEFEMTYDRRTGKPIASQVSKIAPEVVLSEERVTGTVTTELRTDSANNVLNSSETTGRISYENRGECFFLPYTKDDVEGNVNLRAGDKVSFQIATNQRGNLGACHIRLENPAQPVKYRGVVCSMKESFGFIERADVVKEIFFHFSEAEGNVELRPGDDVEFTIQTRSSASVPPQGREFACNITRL

dUnr CSD789 [1] = target: T4, dUnr CSD789 (Drosophila melanogaster, UniProt B7Z0E2 756-990); assay: as above; details: protein: recombinant; tags: tag cleaved with TEV; label: 3' pCp-Cy5; stem loops
T4 sequence: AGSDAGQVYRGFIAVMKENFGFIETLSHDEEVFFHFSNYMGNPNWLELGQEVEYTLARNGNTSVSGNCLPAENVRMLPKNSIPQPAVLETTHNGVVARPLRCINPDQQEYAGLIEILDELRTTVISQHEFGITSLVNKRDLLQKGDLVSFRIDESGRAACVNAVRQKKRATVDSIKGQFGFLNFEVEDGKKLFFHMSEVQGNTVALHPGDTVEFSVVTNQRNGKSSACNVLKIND

dUnr ncCSD6 = target: T5, dUnr ncCSD6 (Drosophila melanogaster, UniProt B7Z0E2 593-677); assay: NMR titration; no CSPs; EMSA: 20 mM HEPES/NaOH pH 7.5, 50 mM NaCl, 10% glycerol, 2 mM DTT, 1 h at 4 C, ~25 nM RNA; NMR: 20 mM NaP pH 6.5, 50 mM NaCl, 1 mM DTT (10 mM for CSD12), 10% D2O, 298 K; details: protein: recombinant; tags: tag cleaved with TEV
T5 sequence: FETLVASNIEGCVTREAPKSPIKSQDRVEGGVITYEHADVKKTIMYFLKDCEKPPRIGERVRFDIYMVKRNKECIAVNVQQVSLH

dUnr ncCSD8 = target: T6, dUnr ncCSD8 (Drosophila melanogaster, UniProt B7Z0E2 841-922); assay: as above; details: protein: recombinant; tags: tag cleaved with TEV
T6 sequence: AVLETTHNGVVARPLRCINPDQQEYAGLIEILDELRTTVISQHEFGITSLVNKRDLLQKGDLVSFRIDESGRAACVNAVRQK

dUnr CSD78 = target: T7, dUnr CSD78 (Drosophila melanogaster, UniProt B7Z0E2 756-922); assay: NMR titration; joint range given for CSD78 and CSD9; EMSA: 20 mM HEPES/NaOH pH 7.5, 50 mM NaCl, 10% glycerol, 2 mM DTT, 1 h at 4 C, ~25 nM RNA; NMR: 20 mM NaP pH 6.5, 50 mM NaCl, 1 mM DTT (10 mM for CSD12), 10% D2O, 298 K; details: protein: recombinant; tags: tag cleaved with TEV
T7 sequence: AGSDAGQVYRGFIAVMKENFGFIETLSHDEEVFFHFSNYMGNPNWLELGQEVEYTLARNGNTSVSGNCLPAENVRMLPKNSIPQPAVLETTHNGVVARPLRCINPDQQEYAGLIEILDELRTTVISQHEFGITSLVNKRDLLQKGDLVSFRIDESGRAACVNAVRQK

dUnr CSD9 = target: T8, dUnr CSD9 (Drosophila melanogaster, UniProt B7Z0E2 898-990); assay: as above; details: protein: recombinant; tags: tag cleaved with TEV
T8 sequence: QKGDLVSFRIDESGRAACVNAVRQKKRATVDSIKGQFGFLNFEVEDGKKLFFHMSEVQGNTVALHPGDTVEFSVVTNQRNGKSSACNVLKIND

dUnr CSD789 [2] = target: T4, dUnr CSD789; assay: NMR titration; deuterated protein; CSPs in all three domains, intermediate-to-slow exchange; EMSA: 20 mM HEPES/NaOH pH 7.5, 50 mM NaCl, 10% glycerol, 2 mM DTT, 1 h at 4 C, ~25 nM RNA; NMR: 20 mM NaP pH 6.5, 50 mM NaCl, 1 mM DTT (10 mM for CSD12), 10% D2O, 298 K; details: protein: recombinant; tags: tag cleaved with TEV

B1: SL67 (roX2 lncRNA stem loops 6 and 7) (structured_RNA)
RNA: ACAAUAUGCAAUACAAUACAAUACAAGACAAAAAAAUGUGUCUUGGAACCAACAUUGUACAAGUCGCAAUGCAAACUGAAGUCUUAAAAGACGUGUAAAAUGUUGCAAAUUAAGCAAAUAUAUAUGCAUAUAUGGGUAACGUUUUACGCGCCUUAACCAGU
Kd (dUnr CSD456): 16 µM | Kd (Unr full-length (dUnr)): 707 nM | Kd (dUnr CSD123): 1410 nM | Kd (dUnr CSD789 [1]): 32 µM

AAAAAAAUG (ssRNA) [9-mer RNA from roX2 SL6 loop]
binding result (dUnr ncCSD6): no binding | binding result (dUnr ncCSD8): no binding | Kd (dUnr CSD78): ~245 µM | Kd (dUnr CSD9): ~245 µM

AAAAAAAAAAAAAAA (ssRNA) [A15-mer RNA]
binding result (dUnr CSD789 [2]): binds
